Data published in patent US20050238685A1, “Method of binding a compound to a surface” (priority 2002, published 2005).
Where two headings read alike, the source gives them in different places.

Tests used:
[1] = class I: resisting 2% SDS at 100° C., class II: 60% ethanol; cited from earlier work
[2] = Different enzymes immobilized via SC3 hydrophobin on TEFLON, spectrophotometry at 412 and 435 nm; assay type: biochemical; details: SC3-coated TEFLON; for function after storage: 4° C. in buffer solution
Method: The surface was first coated with SC3 hydrophobin by immersion in the protein aqueous solution (0.3 mg/mL) during approximately 30 minutes. The obtained modified surface was then immersed in an aqueous enzyme solution during approximately 30 minutes. After each step, the TEFLON™ surface was rinsed with an adequate buffer solution. Activity of the immobilized enzymes was followed by spectrophotometry at 412 and 435 nm after immersion of the functionalized surface in the corresponding substrate solution. The optical density of the solution increases after the immersion of the functionalized surface and stays constant after its removal. […] The functionalized TEFLON® was stored at 4° C. in an Eppendorf tube containing a buffer solution.
(Biocatalysts, Wales; final concentration 2.1 mg/mL), lipase from Candida cylindracea (Biocatalysts, Wales; final concentration 0.25 mg/mL), porcine liver esterase (SIGMA; 41 U/mg of solid, final concentration 2.4 mg/mL), bovine pancreas trypsin (SIGMA; 8,750 U/mg of solid).

[3] = assay type: biochemical
Method: The sheets were removed from the hydrophobin solution and were immediately washed with large amounts of water to remove any unbound hydrophobin (5×50 ml water for five minutes); these coatings are referred to as the α-helix state. Part of the sheets were boiled in a 2% SDS solution for ten minutes, after which the sheets were extensively washed with water; these coatings are referred to as the β-sheet state. The colloidal TEFLON™ was collected by gentle centrifugation (two minutes, 2000 rpm), the supernatant was removed and the TEFLON™ pellet was resuspended in 2 ml pure water followed by centrifugation. The TEFLON™ pellet was washed five times with water to remove all unbound hydrophobin.
The bare and hydrophobin-coated sheets (α-helix state and β-sheet state) were incubated in 2 ml of enzyme solution in 3 ml glass vials at 25° C. for two hours. The used enzyme solutions were 100 μg/ml of 60 kD esterase (porcine liver), 40 kD lipase (wheat germ), or 25 kD trypsin (bovine pancreas). The sheets were washed extensively with water to remove any unbound enzyme.
The sheets with and without immobilized enzyme were used in a chromogenic assay. A 1.5 ml cuvette was filled with 1 ml of a 5 mM 4-nitrophenyl acetate solution (esterase substrate), 5 mM Na-benzoyl-DL-arginine-p-nitroanilide (trypsin substrate), or 5 mM 1,2-di-O-decanoyl-rac-glycero-3-glutaric acid-resorufin labeled in the appropriate buffers. The cuvette was placed in the spectrophotometer and the reaction was started by placing the hydrophobin-coated sheets with or without immobilized enzyme in the cuvette parallel to the light beam. The light absorbance at the appropriate wavelength was followed in time. After one hour of incubation, the sheets were taken from the cuvette and the reaction in the cuvette was followed for an additional 24 hours. The sheets were washed with water and were transferred to a new cuvette with fresh substrate and the reaction was followed again. […] 400 μl of a 100 μg/ml solution of the mentioned enzymes was added to a 1 mm cuvette and a circular dichroism spectrum was recorded between 190 and 250 nm. To this solution, increasing concentrations of pure colloidal TEFLON™ or hydrophobin-coated TEFLON™ was added and changes were followed by recording CD-spectra. […] When TEFLON™ coated with hydrophobin is added to the enzyme solutions, the changes in CD signal (after correction for the hydrophobin signal) are less pronounced. […] Furthermore, oil droplets were coated with hydrophobin. Coating of oil droplets was achieved by emulsifying 100 μl of oil (mineral oil or paraffin oil) in 3 ml of water by sonication and adding 3 ml of an aqueous solution of hydrophobin (200 μg/ml). Alternatively, the oil was directly emulsified in the hydrophobin solution and 3 ml was added. […]

[4] = Circular dichroism of enzymes on binding to bare or hydrophobin-coated colloidal TEFLON; assay type: physicochemical; details: bare colloidal TEFLON
[5] = Esterase, lipase and trypsin on SC3-coated oil droplets, spectrophotometric substrate conversion; assay type: biochemical
Method: The sheets with and without immobilized enzyme were used in a chromogenic assay. A 1.5 ml cuvette was filled with 1 ml of a 5 mM 4-nitrophenyl acetate solution (esterase substrate), 5 mM Na-benzoyl-DL-arginine-p-nitroanilide (trypsin substrate), or 5 mM 1,2-di-O-decanoyl-rac-glycero-3-glutaric acid-resorufin labeled in the appropriate buffers. The cuvette was placed in the spectrophotometer and the reaction was started by placing the hydrophobin-coated sheets with or without immobilized enzyme in the cuvette parallel to the light beam. The light absorbance at the appropriate wavelength was followed in time. After one hour of incubation, the sheets were taken from the cuvette and the reaction in the cuvette was followed for an additional 24 hours. The sheets were washed with water and were transferred to a new cuvette with fresh substrate and the reaction was followed again. […] 400 μl of a 100 μg/ml solution of the mentioned enzymes was added to a 1 mm cuvette and a circular dichroism spectrum was recorded between 190 and 250 nm. To this solution, increasing concentrations of pure colloidal TEFLON™ or hydrophobin-coated TEFLON™ was added and changes were followed by recording CD-spectra. […] When TEFLON™ coated with hydrophobin is added to the enzyme solutions, the changes in CD signal (after correction for the hydrophobin signal) are less pronounced. […]

[6] = cited from earlier work
[7] = at 50 μg ml^−1; cited from earlier work

B1: cerato-ulmin: class II hydrophobin of Ophiostoma ulmi (protein, UniProt Q06153 26-100, looked up)
Class II hydrophobin CU: SDSYDPCTGLLQKSPQCCNTDILGVANLDCHGPPSVPTSPSQFQASCVADGGRSARCCTLSLLGLALVCTDPVGI
- solubility of assembled membranes [1]: readily dissociate in 60% ethanol and in 2% SDS

B2: alkaline phosphatase: human placental alkaline phosphatase (Roche) (protein)
chain: IIPVEEENPDFWNREAAEALGAAKKLQPAQTAAKNLIIFLGDGMGVSTVTAARILKGQKKDKLGPEIPLAMDRFPYVALSKTYNVDKHVPDSGATATAYLCGVKGNFQTIGLSAAARFNQCNTTRGNEVISVMNRAKKAGKSVGVVTTTRVQHASPAGTYAHTVNRNWYSDADVPASARQEGCQDIATQLISNMDIDVILGGGRKYMFRMGTPDPEYPDDYSQGGTRLDGKNLVQEWLAKRQGARYVWNRTELMQASLDPSVTHLMGLFEPGDMKYEIHRDSTLDPSLMEMTEAALRLLSRNPRGFFLFVEGGRIDHGHHESRAYRALTETIMFDDAIERAGQLTSEEDTLSLVTADHSHVFSFGGYPLRGSSIFGLAPGKARDRKAYTVLLYGNGPGYVLKDGARPDVTESESGSPEYRQQSAVPLDEETHAGEDVAVFARGPQAHLVHGVQEQTFIAHVMAFAACLEPYTACDLAPPAGTTD
- activity of enzyme attached to bare wells: not active

B3: esterase: porcine liver esterase, 60 kD (protein)
chain: GQPASPPVVDTAQGRVLGKYVSLEGLAQPVAVFLGVPFAKPPLGSLRFAPPQPAEPWSFVKNTTSYPPMCCQDPVVEQMTSDLFTNGKERLTLEFSEDCLYLNIYTPADLTKRGRLPVMVWIHGGGLVLGGAPMYDGVVLAAHENVVVVAIQYRLGIWGFFSTGDEHSRGNWGHLDQVAALHWVQENIANFGGDPGSVTIFGESAGGESVSVLVLSPLAKNLFHRAISESGVALTVALVRKDMKAAAKQIAVLAGCKTTTSAVFVHCLRQKSEDELLDLTLKMKFLTLDFHGDQRESHPFLPTVVDGVLLPKMPEEILAEKDFNTVPYIVGINKQEFGWLLPTMMGFPLSEGKLDQKTATSLLWKSYPIANIPEELTPVATDKYLGGTDDPVKKKDLFLDLMGDVVFGVPSVTVARQHRDAGAPTYMYEFQYRPSFSSDKKPKTVIGDHGDEIFSVFGFPLLKGDAPEEEVSLSKTVMKFWANFARSGNPNGEGLPHWPMYDQEEGYLQIGVNTQAAKRLKGEEVAFWNDLLSKEAAKKPPKIKHAEL
- state of immobilized enzymes (denaturation, desorption) [2]: not denatured and are not desorbed from the surface
- function after storage [2]: still functional after several weeks
- activity and stability of enzyme attached to hydrophobin-coated sheets [3]: active and stable for up to one month
- activity of enzyme attached to bare sheets [3]: not active
- structural change in CD-spectra upon binding [4]: underwent structural changes
- catalytic activity of immobilized enzyme [5]: still catalytically active

B4: cryparin: class II hydrophobin of Cryphonectria parasitica (protein, UniProt P52753 23-118, looked up)
Class II hydrophobin CRP: GGGGGGSGSGSGSGSGSGSGGGSTTYTACSSTLYSEAQCCATDVLGVADLDCETVPETPTSASSFESICATSGRDAKCCTIPLLGQALLCQDPVGL
- solubility of assembled membranes [1]: readily dissociate in 60% ethanol and in 2% SDS

B5: trypsin: bovine pancreas trypsin, 25 kD (protein)
chain: IVGGYTCGANTVPYQVSLNSGYHFCGGSLINSQWVVSAAHCYKSGIQVRLGEDNINVVEGNEQFISASKSIVHPSYNSNTLNNDIMLIKLKSAASLNSRVASISLPTSCASAGTQCLISGWGNTKSSGTSYPDVLKCLKAPILSDSSCKSAYPGQITSNMFCAGYLEGGKDSCQGDSGGPVVCSGKLQGIVSWGSGCAQKNKPGVYTKVCNYVSWIKQTIASN
- state of immobilized enzymes (denaturation, desorption) [2]: not denatured and are not desorbed from the surface
- function after storage [2]: still functional after several weeks
- activity and stability of enzyme attached to hydrophobin-coated sheets [3]: active and stable for up to one month
- activity of enzyme attached to bare sheets [3]: not active
- structural change in CD-spectra upon binding [4]: underwent structural changes
- catalytic activity of immobilized enzyme [5]: still catalytically active

B6: SC3: class I hydrophobin of Schizophyllum commune (protein)
chain: GGHPGTTTPPVTTTVTVTTPPSTTTIAAGGTCTTGSLSCCNQVQSASSSPVTALLGLLGIVLSDLNVLVGISCSPLTVIGVGGSGCSAQTVCCENTQFNGLINIGCTPINIL
- water contact angle of coated TEFLON ([6]; TEFLON (110°) coated with hydrophobin): 48 °
- water contact angle ([6]; hydrophilic side of the membrane): 36 °
- water contact angle ([6]; hydrophobic side of the membrane): 110 °
- maximal lowering of the water surface tension, from 72 to [7]: 24 mJ m^−2
